Results from patent US6858210B1, “Therapeutic and diagnostic domain 1 β2GPI polypeptides and methods of using same” (La Jolla Pharmaceutical Co., priority 1998, dated 2005).
Values joined by “and” are separate entries in the source; they are usually repeats but may differ in a detail not shown here. Equal entries are not always repeated. Where two headings read alike, the source gives them in different places.

Legend:
[1] = tested on: affinity purified β2GPI-dependent antiphospholipid antibody; experiment: Competitive inhibition ELISA: recombinant β2GPI proteins compete for antibody binding to coated full length recombinant β2GPI; design: species or system human; details: for IC50: read-out: 50% (concentration to give 50% inhibition)
Method in brief: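 Wells coated with full-length recombinant β2GPI (10 μg/ml, pH 9.5) and milk-blocked. Serially diluted recombinant β2GPI proteins were co-incubated with a fixed concentration of patient antibody for 1 h at 37 °C. Bound IgG detected with alkaline phosphatase anti-human IgG at OD550; percent inhibition is background-corrected against inhibitor-free wells.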

[2] = tested on: affinity purified β2GPI-dependent antiphospholipid antibody; experiment: Direct binding ELISA, nickel chelate-coated wells charged with recombinant β2GPI proteins (no cardiolipin); design: species or system human; details: O.D. at 550 nm
Method in brief: (§1)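 His-tagged recombinant β2GPI mutants captured on nickel chelate wells in serial dilution (2 h, room temperature), no anionic phospholipid; GST-6his as negative control. Affinity-purified patient antibodies (11 patients) or rabbit anti-β2GPI detected by alkaline phosphatase anti-IgG, OD 550 nm.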

rabbit anti-β2GPI = experiment: Direct binding ELISA, nickel chelate-coated wells, rabbit antibody; details: O.D. at 550 nm
Method in brief: as §1

B1: recombinant β2GPI domain 5 with GlyHis6 (----5) (protein)
chain: GRASCKLPVKKATVVYQGERVKIQEKFKNGMLHGDKVSFFCKNKEKKCSYTEDAQCIDGTIEVPKCFKEHSSLAFWKTDASDVKPCGHHHHHH
Max (maximum inhibition observed at concentrations tested) ([1]; Ab 6203): 5%
IC50 ([1]; Ab 6203): > 47 µM
Max (maximum inhibition observed at concentrations tested) ([1]; Ab 6501): 10%
IC50 ([1]; Ab 6501): > 47 µM
Max (maximum inhibition observed at concentrations tested) ([1]; Ab 6509): 10%
IC50 ([1]; Ab 6509): > 47 µM
Max (maximum inhibition observed at concentrations tested) ([1]; Ab 6626): 10%
IC50 ([1]; Ab 6626): > 47 µM
Max (maximum inhibition observed at concentrations tested) ([1]; Ab 6632): 10%
IC50 ([1]; Ab 6632): > 47 µM
Max (maximum inhibition observed at concentrations tested) ([1]; Ab 6641): 10%
IC50 ([1]; Ab 6641): > 47 µM
Max (maximum inhibition observed at concentrations tested) ([1]; Ab 6644): 10%
IC50 ([1]; Ab 6644): > 47 µM
Max (maximum inhibition observed at concentrations tested) ([1]; Ab 6652): 15%
IC50 ([1]; Ab 6652): > 47 µM
Max (maximum inhibition observed at concentrations tested) ([1]; Ab 6701): 10%
IC50 ([1]; Ab 6701): > 47 µM
Max (maximum inhibition observed at concentrations tested) ([1]; Ab 7008): 20%
IC50 ([1]; Ab 7008): > 47 µM
Max (maximum inhibition observed at concentrations tested) ([1]; Ab 7015): 10%
IC50 ([1]; Ab 7015): > 47 µM
Max (maximum inhibition observed at concentrations tested) ([1]; Ab 7101): 5%
IC50 ([1]; Ab 7101): > 47 µM
Max (maximum inhibition observed at concentrations tested) ([1]; Ab 7104): 0%
IC50 ([1]; Ab 7104): > 47 µM
Maximum O.D. ([2]; Ab 6203): 0.044
Maximum O.D. ([2]; Ab 6501): 0.004
Maximum O.D. ([2]; Ab 6626): 0.028
Maximum O.D. ([2]; Ab 6632): 0.013
Maximum O.D. ([2]; Ab 6641): 0.018
Maximum O.D. ([2]; Ab 6644): 0.017
Maximum O.D. ([2]; Ab 6652): 0.012
Maximum O.D. ([2]; Ab 6701): 0.000
Maximum O.D. ([2]; Ab 7008): 0.007
Maximum O.D. ([2]; Ab 7015): 0.078
Maximum O.D. ([2]; Ab 7101): 0.078
Maximum O.D. (rabbit anti-β2GPI): 1.663

B2: 12345: recombinant full length human β2GPI (domains 1-5) with C-terminal GlyHis6, baculovirus expressed (protein)
chain: GRTCPKPDDLPFSTVVPLKTFYEPGEEITYSCKPGYVSRGGMRKFICPLTGLWPINTLKCTPRVCPFAGILENGAVRYTTFEYPNTISFSCNTGFYLNGADSAKCTEEGKWSPELPVCAPIICPPPSIPTFATLRVYKPSAGNNSLYRDTAVFECLPQHAMFGNDTITCTTHGNWTKLPECREVKCPFPSRPDNGFVNYPAKPTLYYKDKATFGCHDGYSLDGPEEIECTKLGNWSAMPSCKASCKLPVKKATVVYQGERVKIQEKFKNGMLHGDKVSFFCKNKEKKCSYTEDAQCIDGTIEVPKCFKEHSSLAFWKTDASDVKPCGHHHHHH
Max (maximum inhibition observed at concentrations tested) ([1]; Ab 6203): 75%
IC50 ([1]; Ab 6203): 0.8 µM
Max (maximum inhibition observed at concentrations tested) ([1]; Ab 6501): 80%
IC50 ([1]; Ab 6501): 0.2 µM
Max (maximum inhibition observed at concentrations tested) ([1]; Ab 6509): 70%
IC50 ([1]; Ab 6509): 0.1 µM
Max (maximum inhibition observed at concentrations tested) ([1]; Ab 6626): 80%
IC50 ([1]; Ab 6626): 0.3 µM
Max (maximum inhibition observed at concentrations tested) ([1]; Ab 6632): 90%
IC50 ([1]; Ab 6632): 0.8 µM
Max (maximum inhibition observed at concentrations tested) ([1]; Ab 6641): 96%
IC50 ([1]; Ab 6641): 0.1 µM
Max (maximum inhibition observed at concentrations tested) ([1]; Ab 6644): 90%
IC50 ([1]; Ab 6644): 0.2 µM
Max (maximum inhibition observed at concentrations tested) ([1]; Ab 6652): 95%
IC50 ([1]; Ab 6652): 0.8 µM
Max (maximum inhibition observed at concentrations tested) ([1]; Ab 6701): 100%
IC50 ([1]; Ab 6701): 0.1 µM
Max (maximum inhibition observed at concentrations tested) ([1]; Ab 7008): 90%
IC50 ([1]; Ab 7008): 0.2 µM
Max (maximum inhibition observed at concentrations tested) ([1]; Ab 7015): 90%
IC50 ([1]; Ab 7015): 0.2 µM
Max (maximum inhibition observed at concentrations tested) ([1]; Ab 7101): 80%
IC50 ([1]; Ab 7101): 0.8 µM
Max (maximum inhibition observed at concentrations tested) ([1]; Ab 7104): 90%
IC50 ([1]; Ab 7104): 0.8 µM
Maximum O.D. ([2]; Ab 6203): 1.270
Maximum O.D. ([2]; Ab 6501): 1.772
Maximum O.D. ([2]; Ab 6626): 1.527
Maximum O.D. ([2]; Ab 6632): 1.419
Maximum O.D. ([2]; Ab 6641): 2.555
Maximum O.D. ([2]; Ab 6644): 1.848
Maximum O.D. ([2]; Ab 6652): 0.640
Maximum O.D. ([2]; Ab 6701): 0.948
Maximum O.D. ([2]; Ab 7008): 1.380
Maximum O.D. ([2]; Ab 7015): 1.864
Maximum O.D. ([2]; Ab 7101): 1.257
Maximum O.D. (rabbit anti-β2GPI): 2.065

B3: 1----: recombinant β2GPI protein with domain 1 only (SEQ ID NO:4 region), His6 tail (protein)
chain: GRTCPKPDDLPFSTVVPLKTFYEPGEEITYSCKPGYVSRGGMRKFICPLTGLWPINTLKCTPRVGHHHHHH
Max (maximum inhibition observed at concentrations tested) ([1]; Ab 6203): 60%
Max (maximum inhibition observed at concentrations tested) ([1]; Ab 6203, listed as 1 - - - -): 20%
IC50 ([1]; Ab 6203): > 10 µM
Max (maximum inhibition observed at concentrations tested) ([1]; Ab 6501): 70%
Max (maximum inhibition observed at concentrations tested) ([1]; Ab 6501, listed as 1 - - - -): 30%
IC50 ([1]; Ab 6501, listed as 1 - - - -): > 10 µM
Max (maximum inhibition observed at concentrations tested) ([1]; Ab 6626): 85%
Max (maximum inhibition observed at concentrations tested) ([1]; Ab 6626, listed as 1 - - - -): 50%
IC50 ([1]; Ab 6626, listed as 1 - - - -): > 10 µM
IC50 ([1]; Ab 6626): 8 µM and > 10 µM
Max (maximum inhibition observed at concentrations tested) ([1]; Ab 6632): 90%
Max (maximum inhibition observed at concentrations tested) ([1]; Ab 6632, listed as 1 - - - -): 70%
IC50 ([1]; Ab 6632, listed as 1 - - - -): 3 µM
IC50 ([1]; Ab 6632): 8 µM
Max (maximum inhibition observed at concentrations tested) ([1]; Ab 6641): 98%
IC50 ([1]; Ab 6641): > 10 µM
Max (maximum inhibition observed at concentrations tested) ([1]; Ab 6644): 90%
Max (maximum inhibition observed at concentrations tested) ([1]; Ab 6644, listed as 1 - - - -): 45%
IC50 ([1]; Ab 6644, listed as 1 - - - -): > 10 µM
IC50 ([1]; Ab 6644): 8 µM and > 10 µM
Max (maximum inhibition observed at concentrations tested) ([1]; Ab 6701): 80%
IC50 ([1]; Ab 6701): 4 µM
Max (maximum inhibition observed at concentrations tested) ([1]; Ab 7008): 70%
Max (maximum inhibition observed at concentrations tested) ([1]; Ab 7008, listed as 1 - - - -): 40%
IC50 ([1]; Ab 7008): > 10 µM
Max (maximum inhibition observed at concentrations tested) ([1]; Ab 7015): 90%
Max (maximum inhibition observed at concentrations tested) ([1]; Ab 7015, listed as 1 - - - -): 30%
IC50 ([1]; Ab 7015, listed as 1 - - - -): > 10 µM
IC50 ([1]; Ab 7015): 8 µM and > 10 µM
Max (maximum inhibition observed at concentrations tested) ([1]; Ab 7101): 70%
Max (maximum inhibition observed at concentrations tested) ([1]; Ab 7101, listed as 1 - - - -): 20%
IC50 ([1]; Ab 7101, listed as 1 - - - -): > 10 µM
IC50 ([1]; Ab 7101): 8 µM and > 10 µM
Max (maximum inhibition observed at concentrations tested) ([1]; Ab 7104): 90%
IC50 ([1]; Ab 7104): 0.8 µM
Maximum O.D. ([2]; Ab 6203): 1.029
Maximum O.D. ([2]; Ab 6501): 0.911
Maximum O.D. ([2]; Ab 6626): 0.560
Maximum O.D. ([2]; Ab 6632): 0.351
Maximum O.D. ([2]; Ab 6641): 0.252
Maximum O.D. ([2]; Ab 6644): 0.493
Maximum O.D. ([2]; Ab 6652): 0.262
Maximum O.D. ([2]; Ab 6701): 0.388
Maximum O.D. ([2]; Ab 7008): 0.195
Maximum O.D. ([2]; Ab 7015): 1.102
Maximum O.D. ([2]; Ab 7101): 0.804
Maximum O.D. (rabbit anti-β2GPI): 1.9737
